The values below come from patent publication US10603364B2, “Lysosomal targeting and uses thereof” (Shire Human Genetic Therapies, Inc., priority 2014, dated 2020).

Series [1] deals with wild-type rats. Description: Immunohistochemistry of Naglu protein in brain tissue after intrathecal administration. Format: in vivo. Particulars: for Naglu immunostaining in cerebral cortex / brain parenchyma: 4 and 24 hours post treatment. Here is the method: (§1) To evaluate biodistribution of the SORT1-binding Naglu fusion proteins, an in vivo study was conducted using wild-type rats subjected to intrathecal administration of vehicle control (PBS), rhNaglu, Naglu-IGFII, Naglu-SPP, Naglu-SapDC or Naglu-tPRGN. Details of the experimental design are provide in Table 9 below. Previous experiments had shown that Naglu-IGFII but not rhNaglu penetrates into brain tissue and is targeted to lysosomes after intrathecal injection. Accordingly, rhNaglu and Naglu-IGFII were utilized in this study as negative and positive controls, respectively.
Rats were sacrificed either 4 or 24 hours post intrathecal administration of the respective fusion protein. Brain tissue samples were collected, fixed in 10% NBF and processed for paraffin embedding. 5 μm paraffin sections from each tissue assayed were subjected to immunostaining using an anti-human Naglu antibody.

Series [2] deals with SORT1 overexpressing cells. The series is described as follows: Cellular uptake in Sortilin overexpressing cells (intracellular Naglu enzyme activity). Type of series: cell-based. Particulars: absence of Neurotensin. As to the method:
A cell line was established overexpressing SORT1, using standard technologies known in the art. […] After a specified period of time, the supernatant was removed and the cells were washed repeatedly. Then, cells were lysed and each sample was assayed for Naglu enzyme activity.

In series [3] the test system is wild-type rats. The series is described as follows: Naglu enzyme activity in liver and brain after intrathecal administration (biodistribution). Format: in vivo. Conditions: 385 ug/animal; for Naglu enzyme activity in brain: 4 or 24 hours post dose. Here is the method:
as §1
Rats were sacrificed either 4 or 24 hours post intrathecal administration of the respective fusion protein and total Naglu enzyme activity in the animals' liver and brain tissue was determined using a well-established enzyme activity assay (FIGS. 7A and B). Briefly, brain and liver tissue homogenates were prepared and incubated in the presence of a Naglu specific substrate, i.e., methylumbelliferyl-N-acetyl-α-D-glucosainide; accumulation of cleavage product was then measured by examining fluorescence intensity at 360/460 nm (excitation/emission) using a fluorescent plate reader.

Series [4] deals with Naglu KO mice. Description: Heparan sulfate in brain by LC/MS. Format: in vivo. Conditions: intrathecal, 520 mg/kg brain, 2× weekly and 3× weekly. As to the method: (§2) To evaluate the in vivo activity of Naglu-SPP and its efficacy as a therapeutic for the treatment of lysosomal storage diseases, particularly San B, Naglu-SPP was administered to Naglu KO mice via intrathecal injection. Intrathecal administration of Naglu-IGFII served as a positive control. The experimental conditions used for this assay are described in Tables 10 and 11 below.
In a second assay, we evaluation the total amount of heparan sulfate in the brain of treated KO mice. […] To measure heparan sulfate in mouse brain tissue, a highly sensitive LC/MS method was applied (Lawrence et al, 2012, Nat Chem Biol. 2012 Jan. 8; 8(2):197-204). Briefly, total GAG from brain tissue was extracted by a DEAE column and a desalting column, and then dried and weighted. The extracted GAG was treated with heparin lyases that specifically release unique mono, di and tri saccharides of heparan sulfate, and the sample was then analyzed by LC/MS. The released saccharides were identified and quantified using commercially available saccharide standards of heparan sulfate degradation.

The test system of series [5] is Naglu KO mice. The series is described as follows: Naglu enzyme activity in tissues of Naglu KO mice after intrathecal administration. Type of series: in vivo. Conditions: 520 mg/kg brain, 24 hrs post final dose. Here is the method: as §2
24 hours after intrathecal administration of each respective fusion protein, Naglu KO mice were sacrificed and Naglu enzyme activity in various tissues was assayed. Total Naglu activity was evaluated using a well-established enzyme activity assay. Briefly, tissue homogenate was incubated in the presence of the Naglu specific substrate methylumbelliferyl-N-acetyl-α-D-glucosainide, and accumulation of cleavage product was measured by examining fluorescence intensity at 360/460 nm (excitation/emission) using a fluorescent plate reader. […] This increase in enzyme activity was observed over the duration of the 3 week treatment period.

Series [6] has as its system Naglu KO mice. Description: Total glycosaminoglycan (GAG) in liver and brain, dimethylmethylene blue. Format: in vivo. Particulars: intrathecal, 520 mg/kg brain; brain significant in 2× and 3× weekly groups. Here is the method:
as §2
The activity of Naglu-SPP and Naglu-IGFII in vivo was also evaluated by examining the intracellular accumulation of natural substrates of Naglu in treated mice. One such assay was designed to evaluate the total concentration of glycosaminoglycan (GAG) in liver (FIG. 11A) and brain (FIG. 11B) tissue of treated mice in accordance with de Jong et al. (Clin Chem 38(6):803-807, 1992). Briefly, liver tissue was homogenized and total GAG quantified using dimethylmethylene blue. Brain tissue was homogenized and then incubated with pronase and benzonase to break down protein and nucleic acid. Total GAG was then extracted by passing the brain homogenate through a DEAE column. The eluate was further buffer exchanged through a desalting column, and the total GAG content was quantified using dimethylmethylene blue. […] The reduction of total GAG amount in brain tissue was significant in the 2× weekly as well as the 3× weekly treatment groups.

Series [7] relates to Naglu KO mice. Description: Sanfillipo B specific biomarkers in brain by LC/MS. Format: in vivo. Particulars: intrathecal, 520 mg/kg brain, especially 2× weekly and 3× weekly. Here is the method: as §2
Using the same LC/MS technology as used for the quantification of heparin sulfate (see above), the presence of Sanfillipo B specific biomarkers in brains of treated KO mice were evaluated. Naglu deficiency causes the accumulation of certain heparin sulfate degradation products (presented in FIGS. 13A-C) which are natural substrates of Naglu. These biomarkers are the most relevant indications for Naglu deficiency.

In series [8] the test system is Naglu KO mice. Description: Immunohistochemical staining of Lamp-1, GFAP and Iba-1 in brain and liver. Format: in vivo. Conditions: intrathecal. As to the method: as §2
The lysosomal targeting of Naglu-SPP and Naglu-IGFII was further examined by immunohistochemical analysis. Tissue samples were collected, fixed in 10% NBF and processed for paraffin embedding. For each tissue assayed, 5 μm paraffin sections was subjected to immunostaining using antibodies against lamp lysosomal associated membrane protein 1 (Lamp-1), glial fibrillary acidic protein (GFAP) and the ionized calcium-binding adapter molecule 1 (Iba-1).

B1: Naglu-tPRGN: Fusion protein of human Naglu and Progranulin C-terminal peptide (tPRGN) via GAG3 linker; SEQ ID NO:18, SEQ ID NO:23 (protein)
chain: MEAVAVAAAVGVLLLAGAGGAAGDEAREAAAVRALVARLLGPGPAADFSVSVERALAAKPGLDTYSLGGGGAARVRVRGSTGVAAAAGLHRYLRDFCGCHVAWSGSQLRLPRPLPAVPGELTEATPNRYRYYQNVCTQSYSFVWWDWARWEREIDWMALNGINLALAWSGQEAIWQRVYLALGLTQAEINEFFTGPAFLAWGRMGNLHTWDGPLPPSWHIKQLYLQHRVLDQMRSFGMTPVLPAFAGHVPEAVTRVFPQVNVTKMGSWGHFNCSYSCSFLLAPEDPIFPIIGSLFLRELIKEFGTDHIYGADTFNEMQPPSSEPSYLAAATTAVYEAMTAVDTEAVWLLQGWLFQHQPQFWGPAQIRAVLGAVPRGRLLVLDLFAESQPVYTRTASFQGQPFIWCMLHNFGGNHGLFGALEAVNGGPEAARLFPNSTMVGTGMAPEGISQNEVVYSLMAELGWRKDPVPDLAAWVTSFAARRYGVSHPDAGAAWRLLLRSVYNCSGEACRGHNRSPLVRRPSLQMNTSIWYNRSDVFEAWRLLLTSAPSLATSPAFRYDLLDLTRQAVQELVSLYYEEARSAYLSKELASLLRAGGVLAYELLPALDEVLASDSRFLLGSWLEQARAAAVSEAEADFYEQNSRYQLTLWGPEGNILDYANKQLAGLVANYYTPRWRLFLEALVDSVAQGIPFQQHQFDKNVFQLEQAFVLSKQRYPSQPRGDTVDLAKKIFLKYYPRWVAGSWGAPGGGGGAAAAAGGGGGGAPGGGGGAAAAAGGGGGGAPGGGGGAAAAAGGGGGGAPTKCLRREAPRWDAPLRDPALRQLL
Turning to B1, the “Naglu immunostaining in cerebral cortex / brain parenchyma” value in the series on wild-type rats [1] is on record as “little to no Naglu signal”. Besides, in series [2], the Bmax of binding/uptake worked out at 2060 nmol/h/mg and the “cellular internalization (intracellular Naglu activity)” value is “effectively internalized”. The “Naglu enzyme activity in brain” value in the series on wild-type rats [3] is reported as “markedly elevated levels”.

B2: Naglu-IGFII: Fusion protein of human Naglu and IGF-II residues 8-67 via GAG3 linker; SEQ ID NO:20, SEQ ID NO:25; positive control (protein)
chain: MEAVAVAAAVGVLLLAGAGGAAGDEAREAAAVRALVARLLGPGPAADFSVSVERALAAKPGLDTYSLGGGGAARVRVRGSTGVAAAAGLHRYLRDFCGCHVAWSGSQLRLPRPLPAVPGELTEATPNRYRYYQNVCTQSYSFVWWDWARWEREIDWMALNGINLALAWSGQEAIWQRVYLALGLTQAEINEFFTGPAFLAWGRMGNLHTWDGPLPPSWHIKQLYLQHRVLDQMRSFGMTPVLPAFAGHVPEAVTRVFPQVNVTKMGSWGHFNCSYSCSFLLAPEDPIFPIIGSLFLRELIKEFGTDHIYGADTFNEMQPPSSEPSYLAAATTAVYEAMTAVDTEAVWLLQGWLFQHQPQFWGPAQIRAVLGAVPRGRLLVLDLFAESQPVYTRTASFQGQPFIWCMLHNFGGNHGLFGALEAVNGGPEAARLFPNSTMVGTGMAPEGISQNEVVYSLMAELGWRKDPVPDLAAWVTSFAARRYGVSHPDAGAAWRLLLRSVYNCSGEACRGHNRSPLVRRPSLQMNTSIWYNRSDVFEAWRLLLTSAPSLATSPAFRYDLLDLTRQAVQELVSLYYEEARSAYLSKELASLLRAGGVLAYELLPALDEVLASDSRFLLGSWLEQARAAAVSEAEADFYEQNSRYQLTLWGPEGNILDYANKQLAGLVANYYTPRWRLFLEALVDSVAQGIPFQQHQFDKNVFQLEQAFVLSKQRYPSQPRGDTVDLAKKIFLKYYPRWVAGSWGAPGGGGGAAAAAGGGGGGAPGGGGGAAAAAGGGGGGAPGGGGGAAAAAGGGGGGAPLCGGELVDTLQFVCGDRGFYFSRPASRVSRRSRGIVEECCFRSCDLALLETYCATPAKSE
notes: Fusion protein of human Naglu and IGF-II residues 8-67 via GAG3 linker; positive control
In the case of B2, in the series with Naglu KO mice [4], the “total amount of heparan sulfate accumulation in brain tissue” value is listed as “strong reduction”. Moreover, the “Naglu immunostaining in cerebral cortex / brain parenchyma” value in the series on wild-type rats [1] is listed as “positive staining”. Moreover, the “Naglu immunostaining in cerebellum and hippocampal region” value in the series with wild-type rats [1] (24 hours post injection) is “strong Naglu signal”. Also, the “Naglu activity in liver and brain tissue vs vehicle control” value with Naglu KO mice [5] was “dramatic increase”. The “total GAG concentration in liver and brain tissue vs vehicle control” value with Naglu KO mice [6] is reported as “significant reduction”. In addition, the “accumulation of three GAG cleavage products (San B biomarkers) in brain” value in the series on Naglu KO mice [7] is “dramatic decrease”. For the same molecule, the “Lamp-1 immunostaining in brain (cerebral cortex, cerebellum, thalamus, striatum, white matter)” value in the series on Naglu KO mice [8] (2× weekly and 3× weekly) is recorded as “decrease”. Moreover, in the series with Naglu KO mice [8] (three weekly deliveries), the “Lamp-1 immunoreactivity in liver” value is “reduced significantly”. Also, in the series with Naglu KO mice [8] (three weekly injections), the “GFAP staining in cerebral cortex and cerebellum (astrocytes)” value is reported as “reduced signal”; the “Iba-1 staining in cerebral cortex and cerebellum (microglial cells)” value is “microglial cells had a reduced size and a reduced number of processes”. Also, in the series on wild-type rats [3], the “rank of Naglu enzyme activity in brain among treatments” value is “highest activity” and the “Naglu enzyme activity in brain” value was “markedly elevated levels”.

B3: Naglu-SapDC: Fusion protein of human Naglu and Prosaposin DC peptide (SapDC) via GAG3 linker; SEQ ID NO:19, SEQ ID NO:24 (protein)
chain: MEAVAVAAAVGVLLLAGAGGAAGDEAREAAAVRALVARLLGPGPAADFSVSVERALAAKPGLDTYSLGGGGAARVRVRGSTGVAAAAGLHRYLRDFCGCHVAWSGSQLRLPRPLPAVPGELTEATPNRYRYYQNVCTQSYSFVWWDWARWEREIDWMALNGINLALAWSGQEAIWQRVYLALGLTQAEINEFFTGPAFLAWGRMGNLHTWDGPLPPSWHIKQLYLQHRVLDQMRSFGMTPVLPAFAGHVPEAVTRVFPQVNVTKMGSWGHFNCSYSCSFLLAPEDPIFPIIGSLFLRELIKEFGTDHIYGADTFNEMQPPSSEPSYLAAATTAVYEAMTAVDTEAVWLLQGWLFQHQPQFWGPAQIRAVLGAVPRGRLLVLDLFAESQPVYTRTASFQGQPFIWCMLHNFGGNHGLFGALEAVNGGPEAARLFPNSTMVGTGMAPEGISQNEVVYSLMAELGWRKDPVPDLAAWVTSFAARRYGVSHPDAGAAWRLLLRSVYNCSGEACRGHNRSPLVRRPSLQMNTSIWYNRSDVFEAWRLLLTSAPSLATSPAFRYDLLDLTRQAVQELVSLYYEEARSAYLSKELASLLRAGGVLAYELLPALDEVLASDSRFLLGSWLEQARAAAVSEAEADFYEQNSRYQLTLWGPEGNILDYANKQLAGLVANYYTPRWRLFLEALVDSVAQGIPFQQHQFDKNVFQLEQAFVLSKQRYPSQPRGDTVDLAKKIFLKYYPRWVAGSWGAPGGGGGAAAAAGGGGGGAPGGGGGAAAAAGGGGGGAPGGGGGAAAAAGGGGGGAPDGGFCEVCKKLVGYLDRNLEKNSTKQEILAALEKGCSFLPDPYQKQCDQFVAEYEPVLIEILVEVMDPSFVCLKIGACPSAHKPLLGTEKCIWGPSYWCQNTETAAQCNAVEHCKRHVWN
As for B3, the “Naglu immunostaining in cerebral cortex / brain parenchyma” value in the series with wild-type rats [1] is on record as “little to no Naglu signal”. Further, the “cellular internalization (intracellular Naglu activity)” value in series [2] is listed as “only a very limited increase”. Besides, in the series with wild-type rats [3], the “Naglu enzyme activity in brain” value is “markedly elevated levels”.
